Experimental data published in the Human Domainome abundance scans (Beltran et al. 2025).
± gives the uncertainty stated by the source.

Experiment: abundance fitness (aPCA) (normalised: wild type 0, dead -1); higher = more abundant; growth selection in yeast, the domain comes from the species named
Settings: Homo sapiens

## Lipoamide acyltransferase component of branched-chain alpha-keto acid dehydrogenase complex, mitochondrial L188S, P11182
  abundance fitness: -0.656 ± 0.059

## Lipoamide acyltransferase component of branched-chain alpha-keto acid dehydrogenase complex, mitochondrial L188T, P11182
  abundance fitness: -0.519 ± 0.07

## Lipoamide acyltransferase component of branched-chain alpha-keto acid dehydrogenase complex, mitochondrial L188W, P11182
  abundance fitness: -0.513 ± 0.048

## Lipoamide acyltransferase component of branched-chain alpha-keto acid dehydrogenase complex, mitochondrial L201A, P11182
  abundance fitness: -0.315 ± 0.041

## Lipoamide acyltransferase component of branched-chain alpha-keto acid dehydrogenase complex, mitochondrial L201C, P11182
  abundance fitness: -0.243 ± 0.064

## Lipoamide acyltransferase component of branched-chain alpha-keto acid dehydrogenase complex, mitochondrial L201D, P11182
  abundance fitness: -0.374 ± 0.14

## Lipoamide acyltransferase component of branched-chain alpha-keto acid dehydrogenase complex, mitochondrial L201E, P11182
  abundance fitness: -0.038 ± 0.042

## Lipoamide acyltransferase component of branched-chain alpha-keto acid dehydrogenase complex, mitochondrial L201F, P11182
  abundance fitness: -0.319 ± 0.09

## Lipoamide acyltransferase component of branched-chain alpha-keto acid dehydrogenase complex, mitochondrial L201G, P11182
  abundance fitness: -0.275 ± 0.034

## Lipoamide acyltransferase component of branched-chain alpha-keto acid dehydrogenase complex, mitochondrial L201H, P11182
  abundance fitness: -0.32 ± 0.07

## Lipoamide acyltransferase component of branched-chain alpha-keto acid dehydrogenase complex, mitochondrial L201K, P11182
  abundance fitness: -0.256 ± 0.056

## Lipoamide acyltransferase component of branched-chain alpha-keto acid dehydrogenase complex, mitochondrial L201M, P11182
  abundance fitness: -0.141 ± 0.069

## Lipoamide acyltransferase component of branched-chain alpha-keto acid dehydrogenase complex, mitochondrial L201N, P11182
  abundance fitness: -0.119 ± 0.093

## Lipoamide acyltransferase component of branched-chain alpha-keto acid dehydrogenase complex, mitochondrial L201P, P11182
  abundance fitness: -0.602 ± 0.062

## Lipoamide acyltransferase component of branched-chain alpha-keto acid dehydrogenase complex, mitochondrial L201Q, P11182
  abundance fitness: -0.11 ± 0.049

## Lipoamide acyltransferase component of branched-chain alpha-keto acid dehydrogenase complex, mitochondrial L201R, P11182
  abundance fitness: -0.209 ± 0.034

## Lipoamide acyltransferase component of branched-chain alpha-keto acid dehydrogenase complex, mitochondrial L201S, P11182
  abundance fitness: -0.171 ± 0.061

## Lipoamide acyltransferase component of branched-chain alpha-keto acid dehydrogenase complex, mitochondrial L201T, P11182
  abundance fitness: 0.035 ± 0.054

## Lipoamide acyltransferase component of branched-chain alpha-keto acid dehydrogenase complex, mitochondrial L201V, P11182
  abundance fitness: -0.096 ± 0.037

## Lipoamide acyltransferase component of branched-chain alpha-keto acid dehydrogenase complex, mitochondrial L201W, P11182
  abundance fitness: -0.683 ± 0.052

## Lipoamide acyltransferase component of branched-chain alpha-keto acid dehydrogenase complex, mitochondrial L206A, P11182
  abundance fitness: -0.08 ± 0.036

## Lipoamide acyltransferase component of branched-chain alpha-keto acid dehydrogenase complex, mitochondrial L206C, P11182
  abundance fitness: -0.555 ± 0.34

## Lipoamide acyltransferase component of branched-chain alpha-keto acid dehydrogenase complex, mitochondrial L206D, P11182
  abundance fitness: 0.01 ± 0.065

## Lipoamide acyltransferase component of branched-chain alpha-keto acid dehydrogenase complex, mitochondrial L206E, P11182
  abundance fitness: 0.007 ± 0.06

## Lipoamide acyltransferase component of branched-chain alpha-keto acid dehydrogenase complex, mitochondrial L206F, P11182
  abundance fitness: -0.353 ± 0.36

## Lipoamide acyltransferase component of branched-chain alpha-keto acid dehydrogenase complex, mitochondrial L206G, P11182
  abundance fitness: -0.149 ± 0.033

## Lipoamide acyltransferase component of branched-chain alpha-keto acid dehydrogenase complex, mitochondrial L206K, P11182
  abundance fitness: -0.113 ± 0.065

## Lipoamide acyltransferase component of branched-chain alpha-keto acid dehydrogenase complex, mitochondrial L206N, P11182
  abundance fitness: -0.052 ± 0.066

## Lipoamide acyltransferase component of branched-chain alpha-keto acid dehydrogenase complex, mitochondrial L206P, P11182
  abundance fitness: -0.291 ± 0.063

## Lipoamide acyltransferase component of branched-chain alpha-keto acid dehydrogenase complex, mitochondrial L206Q, P11182
  abundance fitness: -0.028 ± 0.051

## Lipoamide acyltransferase component of branched-chain alpha-keto acid dehydrogenase complex, mitochondrial L206R, P11182
  abundance fitness: -0.071 ± 0.035

## Lipoamide acyltransferase component of branched-chain alpha-keto acid dehydrogenase complex, mitochondrial L206S, P11182
  abundance fitness: -0.072 ± 0.049

## Lipoamide acyltransferase component of branched-chain alpha-keto acid dehydrogenase complex, mitochondrial L206V, P11182
  abundance fitness: -0.026 ± 0.043

## Lipoamide acyltransferase component of branched-chain alpha-keto acid dehydrogenase complex, mitochondrial L206W, P11182
  abundance fitness: -0.135 ± 0.052

## Lipoamide acyltransferase component of branched-chain alpha-keto acid dehydrogenase complex, mitochondrial L209A, P11182
  abundance fitness: 0.037 ± 0.043

## Lipoamide acyltransferase component of branched-chain alpha-keto acid dehydrogenase complex, mitochondrial L209C, P11182
  abundance fitness: -0.052 ± 0.057

## Lipoamide acyltransferase component of branched-chain alpha-keto acid dehydrogenase complex, mitochondrial L209D, P11182
  abundance fitness: -0.203 ± 0.045

## Lipoamide acyltransferase component of branched-chain alpha-keto acid dehydrogenase complex, mitochondrial L209E, P11182
  abundance fitness: -0.153 ± 0.04

## Lipoamide acyltransferase component of branched-chain alpha-keto acid dehydrogenase complex, mitochondrial L209F, P11182
  abundance fitness: -0.211 ± 0.098

## Lipoamide acyltransferase component of branched-chain alpha-keto acid dehydrogenase complex, mitochondrial L209G, P11182
  abundance fitness: -0.081 ± 0.034

## Lipoamide acyltransferase component of branched-chain alpha-keto acid dehydrogenase complex, mitochondrial L209I, P11182
  abundance fitness: 0.047 ± 0.17

## Lipoamide acyltransferase component of branched-chain alpha-keto acid dehydrogenase complex, mitochondrial L209K, P11182
  abundance fitness: 0.079 ± 0.087

## Lipoamide acyltransferase component of branched-chain alpha-keto acid dehydrogenase complex, mitochondrial L209N, P11182
  abundance fitness: -0.138 ± 0.073

## Lipoamide acyltransferase component of branched-chain alpha-keto acid dehydrogenase complex, mitochondrial L209P, P11182
  abundance fitness: -0.226 ± 0.051

## Lipoamide acyltransferase component of branched-chain alpha-keto acid dehydrogenase complex, mitochondrial L209Q, P11182
  abundance fitness: -0.072 ± 0.043

## Lipoamide acyltransferase component of branched-chain alpha-keto acid dehydrogenase complex, mitochondrial L209R, P11182
  abundance fitness: 0.006 ± 0.036

## Lipoamide acyltransferase component of branched-chain alpha-keto acid dehydrogenase complex, mitochondrial L209S, P11182
  abundance fitness: -0.026 ± 0.041

## Lipoamide acyltransferase component of branched-chain alpha-keto acid dehydrogenase complex, mitochondrial L209T, P11182
  abundance fitness: -0.131 ± 0.058
